Results on one protein are retold here after patent publication US20050170434.

In the data set the target is p38 MAPK, Q16539.
p38 MAPK, Q16539, sequence (Q16539 2-360): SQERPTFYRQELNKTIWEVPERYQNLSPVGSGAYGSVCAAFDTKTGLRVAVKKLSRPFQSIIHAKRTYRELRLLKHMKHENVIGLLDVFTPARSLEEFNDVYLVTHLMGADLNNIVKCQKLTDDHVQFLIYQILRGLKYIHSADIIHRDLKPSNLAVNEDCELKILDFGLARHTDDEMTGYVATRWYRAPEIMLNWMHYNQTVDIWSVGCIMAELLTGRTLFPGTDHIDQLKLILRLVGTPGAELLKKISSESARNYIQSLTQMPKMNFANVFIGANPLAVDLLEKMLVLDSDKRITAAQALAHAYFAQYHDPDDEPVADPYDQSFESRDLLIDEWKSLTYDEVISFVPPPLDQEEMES

B1: MKK3b (WT) (protein)
chain: MESPASSQPASMPQSKGKSKRKKDLRISCMSKPPAPNPTPPRNLDSRTFITIGDRNFEVEADDLVTISELGRGAYGVVEKVRHAQSGTIMAVKRIRATVNSQEQKRLLMDLDINMRTVDCFYTVTFYGALFREGDVWICMELMDTSLDKFYRKVLDKNMTIPEDILGEIAVSIVRALEHLHSKLSVIHRDVKPSNVLINKEGHVKMCDFGISGYLVDSVAKTMDAGCKPYMAPERINPELNQKGYNVKSDVWSLGITMIEMAILRFPYESWGTPFQQLKQVVEEPSPQLPADRFSPEFVDFTAQCLRKNPAERMSYLELMEHPFFTLHKTKKTDIAAFVKEILGEDS
As for B1, the “p38 phosphorylation (western blot using anti-phospho-p38 antibodies)” value is “in MKK3b (WT)-infected cells, the basal level of phosphorylated p38 protein dramatically increased compared with the basal level in cells infected with vector (TICD8)”.
